Source: article PMC6719045, “Analysis of IFITM-IFITM Interactions by a Flow Cytometry-Based FRET Assay” (International Journal of Molecular Sciences, 2019)

Target: T1, IFITM3-wt fused to SCFP or SYFP (interferon-induced transmembrane protein 3) (UniProt Q01628 1-133)
T1 construct: interferon-induced transmembrane protein 3 (IFITM3), wild type; One molecule stands for both FRET copies (SCFP3A fusion and SYFP2 fusion); also called SxFP-IFITM3; IFTIM3; source: 293T, transiently transfected, in cells; not shown: SCFP3A or SYFP2, N-terminal, kept
T1 sequence (Q01628 whole entry, the tested form may be a part): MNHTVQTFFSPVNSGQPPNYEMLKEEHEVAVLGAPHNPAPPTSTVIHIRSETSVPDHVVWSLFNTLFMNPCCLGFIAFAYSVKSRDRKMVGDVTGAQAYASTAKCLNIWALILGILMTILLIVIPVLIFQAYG
Assay: FRET or BRET; FACS-FRET in 293T cells at 48 h post transfection with titrated amounts of plasmids, total DNA kept constant with empty pCAGGS (Figure 2D)
Details: partners not purified

B1: IFITM1 fused to SCFP or SYFP (interferon-induced transmembrane protein 1) (natural protein, UniProt P13164 1-125, looked up)
chain: MHKEEHEVAVLGPPPSTILPRSTVINIHSETSVPDHVVWSLFNTLFLNWCCLGFIAFAYSVKSRDRKMVGDVTGAQAYASTAKCLNIWALILGILMTIGFILLLVFGSVTVYHIMLQIIQEKRGY
notes: interferon-induced transmembrane protein 1 (IFITM1); One molecule stands for both FRET copies: one carries SCFP3A (donor), the other SYFP2 (acceptor); also called SCFP3A-IFITM1; SYFP2-IFITM1; source: 293T, transiently transfected, in cells; not shown: SCFP3A or SYFP2, N-terminal, kept
percent of FRET-positive cells: ~20%
